# Laboratory results as given in the nanobody polyreactivity screen of Harvey et al. (2022).
# Test: yeast display, Sf9 membrane polyspecificity reagent, FACS + sequencing; frameworks hold sequencing errors
# In short: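 Synthetic nanobody libraries on Saccharomyces cerevisiae BJ5465 were galactose-induced for 36–48 hours, stained 1 hour at 4 °C with 10% biotinylated, detergent-solubilized Sf9 membrane reagent and enriched on streptavidin microbeads. FACS then separated cells into low and high (top ~1%) gates by anti-HA (expression) and streptavidin (reagent binding) fluorescence. Genes were colony-PCR amplified, MiSeq 2 × 250 sequenced and CDR-length filtered. A clone's polyreactivity label is that of its gate of origin.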
row,Sequence,polyreactivity (PSR sort gate)
1,QVQLVESGGGLVQAGGSLRLSCAASGFIFRNYAMGWYRQAPGKERELVAAITGRGTYTYYADSVKGRFTISRDNAKNTVYLQMNSLKPEDTAVYYCAARSLALVYRKYDYWGQGTQVTVSS,high polyreactivity
2,QVQLVESGGGLVQAGGSLRLSCAASGFIFRQNAMGWSRQAPGKDRELVAAISNAGITNYADSVKGRFTISRDNAKITVYLQMNSLKPEDTAVYYCAAVEFRDSTFVVVSSPTSKSDYWGQGTQVTVSS,low polyreactivity
3,QVQLVESGGGLVQAGGSLRLSCAASGFIFRQYAMGWYRQAPGKERELVAAISVGGGRTYYADSVKGRFTISRDNAKNTVYLQMNSLKPEVTAVYYCAASNWHSRGSGEYYWGQGTQVTVSS,high polyreactivity
4,QVQLVESGGGLVQAGGSLRLSCAASGFIFRRNAMGWYRQAPGKERELVAAIRFRSGSTYYAHSVKGRFTISRDNAKNTVYLQKNSLKPEDTAVYYCAADNKRSWRYAYNYWGQRTQVTVSS,high polyreactivity
5,QVQLVESGGGLVQAGGSLRLSCAASGFIFRRNAMGWYRQAPGKERELVAAIRQRGDSTYYADSVKGRFTISRDNAKNTVYLQMNSLKPEDTAVYYCATDHAYFHPEYDYWGQGTQVTVSS,low polyreactivity
6,QVQLVESGGGLVQAGGSLRLSCAASGFIFRRNAMGWYRQAPGKERELVAAITGGGGSTYYADSVKGRFTISRDNAKNTVYLQMNSLKPEDTAVYYCAVDWSRFYNRGGDYWGQGTQVTVSS,high polyreactivity
7,QVQLVESGGGLVQAGGSLRLSCAASGFIFRRNAMGWYRQAPGKERELVAAITKSGGSTYYADSVKGRFTISRDNAKNTVYLQMNSLKPEDTAVYYCAASDASGGGYWGQGTQVTVSS,high polyreactivity
8,QVQLVESGGGLVQAGGSLRLSCAASGFIFRRNAMGWYRQAPGKERELVAVISSRGGTYYADSVKGRFTISRDNAKNTVYLQMNSLKPEDTAVYYCAVDRGKYFPYRYDYWGQGTQVTVSS,high polyreactivity
9,QVQLVESGGGLVQAGGSLRLSCAASGFIFRRYAMGWYGQAPGKERELVAVIRSSGGSTYYADSVKGRFTISRDYAKNTVYLQMISLNPEDTAVYYCAAVSYSSYRYDYWGQGTQVTVSS,high polyreactivity
10,QVQLVESGGGLVQAGGSLRLSCAASGFIFRRYAMGWYRPAPGKERELVAAITGGGGSTYYADSVKGRFTISRDNAKNTVYLQMNSLKPEDSAVYYCAASQARNYKIYDYWGQGTQVTVSS,high polyreactivity
11,QVQLVESGGGLVQAGGSLRLSCAASGFIFRRYAMGWYRQAPGKERELVAAINYSGGSTYYADSVKGRFTISRDNAKNTVSLQMNSLKPEDTSVYYCNAFGLRYYEYDYWGQGTQVTVSS,low polyreactivity
12,QVQLVESGGGLVQAGGSLRLSCAASGFIFRRYAMGWYRQAPGKERELVAAISRGGGSTYYADSVKGRFTISRDNAKNTVYFQMNSLKPEDTAVYYCAARFVPYDAPLNERDYWGQGTQVTVSS,high polyreactivity
13,QVQLVESGGGLVQAGGSLRLSCAASGFIFRRYAMGWYRQAPGKERELVAAISWSGGSTYYADSVKGRFTISRDNAKNTVYLQMNSLKPEDTAVYYCAKVPTSASPYDHWGQGTQVTVSS,high polyreactivity
14,QVQLVESGGGLVQAGGSLRLSCAASGFIFRRYTMGWSRQAHGKERELVAAITSSGGTNYADSVKGRFTISRDNAKNTVYLQMNSLKPEDTAVYFCAAESVSSVWYDYLGQGTQVTVSS,high polyreactivity
15,QVQLVESGGGLVQAGGSLRLSCAASGFIFRRYTMGWYRQAPGKERELVATITRSVNTDYADSVKGRFTFSRDNAKNTVYLQMNSLKPEDTAVYYCAARKYYYFPVAYDYWGQGTQVTVSS,high polyreactivity
16,QVQLVESGGGLVQAGGSLRLSCAASGFIFRTYAMAWYRQAPGKERELVAAIRQSAGRTYYADSVKGRFTISRDNAKNTVYLQMISLKPEDTAVYYCAADRSPYRRQYDYWGQGTQVTVSS,high polyreactivity
17,QVQLVESGGGLVQAGGSLRLSCAASGFIFRTYAMGWYRQAPGKERELVAAISGTTGSTYYADSVKGRFTISRDNAKNTVYLQMNSLKPEDTAVYFCAADYYWYIRYEYWGQGSQVTVSS,low polyreactivity
18,QVQLVESGGGLVQAGGSLRLSCAASGFIFRVYGMGCYRQATAKERELVAAMTGGCGSTYYADSVKGRFTISRDNAKNTVYLQMNSLKPEDTAVYYCAAVRYSGVRYRYGIYSDTMDYWGQGTQVTVSS,high polyreactivity
19,QVQLVESGGGLVQAGGSLRLSCAASGFIFRWYAMGWSRQAPGKERELVAAISRSGDSTYYADSVKGRFTISRDNAKNTVYLQMNSLKPEDSAVYYCAADDRYYTYGYDYWGQGTQVTVSS,low polyreactivity
20,QVQLVESGGGLVQAGGSLRLSCAASGFIFRYNAMGLYRQAPGKERELVARINSGVSTNYADSVKGRFTISRDNAKNTVYLQMNSLKPEDTAVYYCNARVRRGYSRFDYWGQGTQVTVSS,high polyreactivity
21,QVQLVESGGGLVQAGGSLRLSCAASGFIFRYNAMGWYRQAPGKERELVARISSGGSTNYADSVKGRFTISRDNAKNTVYLQMNSLKPEDTAVYYCAVKQYWYIWSGYGYDYWGQGTQVTVSS,high polyreactivity
22,QVQLVESGGGLVQAGGSLRLSCAASGFIFRYYAMAWYRQAPGKERELVASISRRGGSTYYADSVKGRFTISRDNSKNTFYLQMIRLIPEDTAVYYCAADVVNTVYYPGYDYLGQGTQVTVSS,high polyreactivity

row,Sequence,polyreactivity (PSR sort gate)
1,QVQLVESGGGLVQAGGSLRLSCAASGFIFRYYAMGSYRQAPGKERELVAAITSGGASTYYADSVKGRFTISRDNAMNTVYLQMNSLKPDDTAVYYCAADTSSYSEYEYWGQGTQVTVSS,low polyreactivity
2,QVQLVESGGGLVQAGGSLRLSCAASGFIFRYYAMGWYRQAPGKERELVAAIDYSGGSTNYADSVKGRFTISRDYAKNTVYLQMNSQKPEDTAVYYCNAEYTWHRGYDYWGQGTQVTVSS,low polyreactivity
3,QVQLVESGGGLVQAGGSLRLSCAASGFIFRYYAMGWYRQAPGKERELVAAIRRGGSTSYADSVKGRFTISRDNAKNTVYLQMNSLKPEDTAVYYCNALGNFGMDYWGQGTQVTVSS,high polyreactivity
4,QVQLVESGGGLVQAGGSLRLSCAASGFIFRYYAMGWYRQAPGKERELVAAISGNGGNTYYADSVKGRFTISRDNAKNTVYLQMNSLKPEDTAVYYCNRAPGYRGGRYDYWGQGTQVTVSS,high polyreactivity
5,QVQLVESGGGLVQAGGSLRLSCAASGFIFRYYAMGWYRQAPGKERELVAAISSRGGSTYYADSVKGRFTISRDNAKNTVYLQMNSLKPEDTAVYYCAKRGFYTDRDYWGQGTQVTVSS,high polyreactivity
6,QVQLVESGGGLVQAGGSLRLSCAASGFIFRYYAMGWYRQAPGKERELVAAISWSGSRTYYADSVKGRFTISRDNAKNTVYVQMNSLKPEDTAVYYCAADGNVGVTKGRFDYWGQGTQVTVSS,high polyreactivity
7,QVQLVESGGGLVQAGGSLRLSCAASGFIFRYYAMGWYRQAPGKERELVAAITRGGSTYYADSVKGRFTISRDNAKNTVYLQMNSLKPEDTAVYDCAARLYTQYYYWGQGTQVTVSS,high polyreactivity
8,QVQLVESGGGLVQAGGSLRLSCAASGFIFRYYGMGWYRQAPGKERELVAAITDGGSTTYADSVKGRFTISRDNAKNTVYLQMNSLKPEDTAVYYCNAEAGGFDYYGKTYRYGDYWGQGTQVTVSS,low polyreactivity
9,QVQLVESGGGLVQAGGSLRLSCAASGFIFRYYSMAWYRQAPGKERELVAAISGSGGGTYYADSVKGRFTISRDYAKNTVYLQMNSLKPEDTAVYYCNARKVYSRRYKYDYWGQGSQVTVSS,high polyreactivity
10,QVQLVESGGGLVQAGGSLRLSCAASGFIFRYYTMGWYRQAPGKERELVARISSGGSTTYADSVKGRFTISRDNAKNTVYLQMNSLKPEDTAVYYCHARVKRWYFGNANHSPEYDYWGKGTQVTVSS,low polyreactivity
11,QVQLVESGGGLVQAGGSLRLSCAASGFIFSANAMGWYRQAPGKERELVAAISSRGTSTYYADSVKGRFTISRDYAKNTVYLQMNSLKPEDTGVYFCAADYYQAGTYVWMDYWGQGTQVTVSS,high polyreactivity
12,QVQLVESGGGLVQAGGSLRLSCAASGFIFSGYAMGWYRQAPGKERELVAAIRWNGGRTYYADSVKGRFTISRDNAKNTVYLQMNSLKPEDTAVYYCAAGSGRDYGYRYFFWRYDYWGQGTQVTVSS,high polyreactivity
13,QVQLVESGGGLVQAGGSLRLSCAASGFIFSGYTMGWYRQAPGKERELVAAITKRGGRTYYADSVKGRFTISRDNAKNTVYLQMNSLKPEDTAVYYCNVDVKVYSDETTDGDYWGQGTQVTVSS,high polyreactivity
14,QVQLVESGGGLVQAGGSLRLSCAASGFIFSIYAMGWYRQAPGKERELVAAISGTGSTSYADSVKGRFTISRDNAKNTVYLQMNSLKPEDTAVYYCAKDGPGRLGDDYWGQGTQVTVSS,low polyreactivity
15,QVQLVESGGGLVQAGGSLRLSCAASGFIFSIYAMGWYRQAPGKERELVATITYSGGSTYYADSVKGRFTISRDNAKNTVYLQMNSLKPEDTAVYYCNALSKGYYTIGGYSWGQGTQVTVSS,low polyreactivity
16,QVQLVESGGGLVQAGGSLRLSCAASGFIFSLYAMGWYRQAPGKERELVAAISRSDDRTYYADSVKGRFTISRDDAKNTVYLQMNSLKPEDTAVYYCNVRYSYILIYEYWGQGTQVTVSS,low polyreactivity
17,QVQLVESGGGLVQAGGSLRLSCAASGFIFSLYAMGWYRQAPGKERELVAVITWSDGRTYYADSVKGRFTISRDNAKNTVYLQMNSLKPEDTAVYYCAAADWITEYDYWGQGTQVTVSS,low polyreactivity
18,QVQLVESGGGLVQAGGSLRLSCAASGFIFSPNALGWYRPAPGKEREFVAAIRYSGTSTSYADSVKGRFTISRDNAKNTVYLQMNSLKPEDTAVYYCNAQWRFSRGYTYNYWGQGTQVTVSS,high polyreactivity
19,QVQLVESGGGLVQAGGSLRLSCAASGFIFSPNAMGWYRQAPGKEREFVAAIRYSGTSTSYADSVKGRFTISRDNAKNTVYLQMNSLKPEDTAVDYCAAQSRQRTGMYYWGQGTQVTVSS,high polyreactivity
20,QVQLVESGGGLVQAGGSLRLSCAASGFIFSRNALGWYRQAPGKERELVAVISTRGGSTYYADSVKGRFTISRDNAKNTVYLQMNSLKPEDTAVYYCAARRTRGYEYWGQGTQVTVSS,high polyreactivity
21,QVQLVESGGGLVQAGGSLRLSCAASGFIFSRNAMGWYRQAPGKERELVAAISAGGGSTYYADSVKGRFTISLDNAKYTVYLQMNSLKPEDSAVYSCAAYFRSQFGYWGQGTEVTVSS,high polyreactivity
